Experimental data taken from patent US12565517B2, “Cyclic peptide having CTLA-4 inhibitory activity and use thereof” (GeneFrontier Corporation, priority 2019, dated 2026).

Biological target: T1, CTLA-4 (Homo sapiens, UniProt P16410)
T1 sequence (P16410 36-223): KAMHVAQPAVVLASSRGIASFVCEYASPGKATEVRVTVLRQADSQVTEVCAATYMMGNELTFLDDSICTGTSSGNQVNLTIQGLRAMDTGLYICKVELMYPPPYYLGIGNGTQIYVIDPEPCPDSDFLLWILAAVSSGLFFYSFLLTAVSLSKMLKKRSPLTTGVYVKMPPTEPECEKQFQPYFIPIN
Test: ELISA binding of clones after Affinity Maturation with random library (Tables 10, 11)
Protocol: After each round of Affinity Maturation, the cyclic peptide genes were recovered and subcloned into pET-Mal vector (FIG. 2) in the same manner as described above to perform base sequence analysis. For the 94 single colonies analyzed for sequence, E. coli transformants were inoculated into 100 μL of 2×YT medium containing ampicillin (final concentration 50 μg/mL), incubated at 37° C. for 3-5 hours (OD600=0.5-0.8), then added with IPTG (final concentration 0.5 mM) and incubated at 25° C. overnight. 10 μL of E. coli cultured medium was added with 90 μL of PBS and 40 μL of lysis reagent (20 μL BugBuster Protein Extraction Reagent (Novagen), 20 μL Lysozyme solution 2.5 mg/mL) to lyse E. coli cells for 1 hour at room temperature. The cell lysate was added with 40 μL of 12.5% skim milk solution (TBST) and blocked for 1 hour at room temperature. In parallel, antigen protein was immobilized overnight at 4° C. in 384-well plates at 100 ng/20 μL per well, and each well was washed twice with 100 μL/well of TBST, added with 100 μL/well of 5% skim milk solution (TBST) for blocking for 1 hour at room temperature, and washed twice with 100 μL/well of TBST to obtain antigen-immobilized plates. 20 μL/well of blocking-treated E. coli extract was added to the antigen-immobilized plates and gently stirred at room temperature using a plate mixer. After 1 hour, the plates were washed 5 times with 100 μL/well of TBST, 20 μL/well of anti-FLAG M2-HRP conjugate (1:2000 dilution, Sigma) was added and gently stirred on a plate mixer for 1 hour at room temperature. The plates were washed 5 times with 100 μL/well of TBST, and binding of cyclic peptides to the antigen was detected by 20 μL/well of chromogenic substrate (0.4 mg/mL 3,3′,5,5′-Tetramethyl-benzidine, 0.01% hydrogen peroxide). After 15 minutes of reaction at room temperature, the reaction was stopped with 20 μL/well of 2N HCl, and absorbance at 450 nm was measured using a plate reader (infinite F200: TECAN) (Table 5).
Oligo DNAs of a library were synthesized (see below), in which amino acid residues (positions 1, 4, 8, 10, +1 and +2) (corresponding to X1, […], X8, X10, X+1 and X+2) other than those essential or advantageous for CTLA-4 binding (2H, 3P, 5L, 6P, 7I, 9S, 11H, 12F) identified by alanine scanning were randomized (NNS).
Affinity Maturation was performed in the same manner as described above. The amount of biotinylated CTLA-4 immobilized on the magnetic beads was 10 pmol in the 1st round, 2 pmol in the 2nd round, and 1 pmol in the 3nd-5th rounds, respectively. The washing period was 2 hours for the 1st round, 19 hours for the 2nd round, 67 hours for the 3nd round, 140 hours for the 4th round, and 340 hours for the 5th round. Washing frequency was 1 time (2 hours) in the 1st round, 2 times (every 10 hours) in the 2nd round, 6 times (every 10 hours) in the 3rd round, 14 times (every 10 hours) in the 4th round, and 36 times (every 10 hours) in the 5th round.

[1] = CTLA-4 binding ELISA of clones after Affinity Maturation from random (NNS) library, signal/noise ratio, clones of 4th or 5th round

| Substance | ELISA S/N(SA) [1] | ELISA S/N(SA) (S/N ratio of CTLA-4 binding in ELISA, clones from 4th or 5th round of Affinity Maturation from random (NNS) library) |
| --- | --- | --- |
| C4m#19-5th2w-NNS6-90 (GGCRHPFLPIVSFHFCPF; C4m#19-5th2w-NNS6-90) | 19.7 |  |
| C4m#19-5th4w-NN6-69-1 (GGCSHPFLPILSVHFCPF; C4m#19-5th4w-NN6-69-1) | 24.9 |  |
| C4m#19-5th4w-NN6-77 (GGCRHPFLPIVSTHFCSR; C4m#19-5th4w-NN6-77) | 30.5 |  |
| C4m3127-4th-NNS6-48 (GGCFHPWLPIASWHFCGR; C4m3127-4th-NNS6-48) [Clone C4m3127-4th-NNS6-48] | 13.5 |  |
| C4m#19-5th4w-NN6-65-1 (GGCWHPFLPISSPHFCGR; left off: large carriers; small tags and cut ends) | 29.5 |  |
| C4m#19-5th4w-NN6-52 (GGCLHPFLPIRSVHFCGC; C4m#19-5th4w-NN6-52) | 28.6 |  |
| C4m#19-5th4w-NN6-19 (GGCRHPYLPIWSIHFCQK; C4m#19-5th4w-NN6-19) | 29.7 |  |
| C4m3127-4th-NNS6-12 (GGCSHPFLPIRSRHFCPF; C4m3127-4th-NNS6-12) [Clone C4m3127-4th-NNS6-12] | 15.8 |  |
| C4m3127-4th-NNS6-66 (GGCAHPHLPIRSVHFCSF; C4m3127-4th-NNS6-66) [Clone C4m3127-4th-NNS6-66] | 4.8 |  |
| C4m#19-5th4w-NN6-4 (GGCRHPYLPIVSRHFCPF; C4m#19-5th4w-NN6-4) | 31.6 |  |
| C4m#19-5th4w-NN6-71 (GGCPHPWLPIASVHFCPF; C4m#19-5th4w-NN6-71) | 17.4 |  |
| C4m#19-5th2w-NNS6-51 (GGCRHPFLPIVSLHFCPF; C4m#19-5th2w-NNS6-51) | 15.8 |  |
| C4m#19-5th2w-NNS6-68 (GGCLHPWLPIVSCHFCPR; C4m#19-5th2w-NNS6-68) | 4.6 |  |
| C4m3127-4th-NNS6-83 (GGCRHPFLPIFSKHFCEL; C4m3127-4th-NNS6-83) [Clone C4m3127-4th-NNS6-83] | 20.7 |  |
| C4m3127-4th-NNS6-3 (GGCSHPFLPIWSVHFCGQ; C4m3127-4th-NNS6-3) [Clone C4m3127-4th-NNS6-3] | 10.9 |  |
| C4m#19-5th4w-NN6-55-4 (GGCVHPSLPILSVHFCPR; C4m#19-5th4w-NN6-55-4) | 29.5 |  |
| C4m3127-4th-NNS6-79 (GGCLHPFLPIRSVHFCLR; C4m3127-4th-NNS6-79) [Clone C4m3127-4th-NNS6-79] | 12.8 |  |
| C4m#19-5th2w-NNS6-74 (GGCMHPFLPIRSWHFCSR; C4m#19-5th2w-NNS6-74) | 7.0 |  |
| C4m#19-5th4w-NN6-58 (GGCRHPFLPISSIHFCCI; C4m#19-5th4w-NN6-58) | 18.7 |  |
| C4m3127-4th-NNS6-80 (GGCGHPFLPIFSLHFCPR; C4m3127-4th-NNS6-80) [Clone C4m3127-4th-NNS6-80] | 12.8 |  |
| C4m#19-5th2w-NNS6-80 (GGCLHPFLPIVSWHFCPC; C4m#19-5th2w-NNS6-80) | 3.6 |  |
| C4m#19-5th2w-NNS6-27 (GGCFHPFLPIRSCHFCAR; C4m#19-5th2w-NNS6-27) | 9.9 |  |
| C4m3127-4th-NNS6-94 (GGCRHPVLPIWSSHFCPW; C4m3127-4th-NNS6-94) [Clone C4m3127-4th-NNS6-94] | 5.9 |  |
| C4m3127-4th-NNS6-2 (GGCWHPSLPIYSPHFCPL; C4m3127-4th-NNS6-2) [Clone C4m3127-4th-NNS6-2] | 12.8 |  |
| C4m#19-5th4w-NN6-85 (GGCWHPFLPIFSVHFCGC; C4m#19-5th4w-NN6-85) | 22.9 |  |
| C4m#19-5th2w-NNS6-53 (GGCLHPWLPIRSFHFCGA; C4m#19-5th2w-NNS6-53) | 11.4 |  |

| Substance | ELISA S/N(SA) [1] | ELISA S/N(SA) (S/N ratio of CTLA-4 binding in ELISA, clones from 4th or 5th round of Affinity Maturation from random (NNS) library) |
| --- | --- | --- |
| C4m3127-4th-NNS6-30 (GGCWHPCLPILSPHFCPR; C4m3127-4th-NNS6-30) [Clone C4m3127-4th-NNS6-30] | 7.5 |  |
| C4m3127-4th-NNS6-28 (GGCLHPFLPIFSSHFCAL; C4m3127-4th-NNS6-28) [Clone C4m3127-4th-NNS6-28] | 23.2 |  |
| C4m3127-4th-NNS6-95 (GGCWHPVLPIRSGHFCSR; C4m3127-4th-NNS6-95) [Clone C4m3127-4th-NNS6-95] |  | 3.4 |
| C4m#19-5th4w-NN6-40 (GGCFHPFLPIRSHHFCML; C4m#19-5th4w-NN6-40) | 4.0 |  |
| C4m#19-5th4w-NN6-49 (GGCMHPYLPIRSFHFCSC; C4m#19-5th4w-NN6-49) | 4.0 |  |
| C4m#19-5th4w-NN6-9 (GGCFHPYLPIRSWHFCGR; C4m#19-5th4w-NN6-9) | 28.8 |  |
| C4m#19-5th2w-NNS6-3 (GGCAHPFLPIFSPHFCPF; C4m#19-5th2w-NNS6-3) | 18.4 |  |
| C4m#19-5th4w-NN6-79 (GGCWHPVLPIRSCHFCAV; C4m#19-5th4w-NN6-79) | 24.9 |  |
| C4m#19-5th4w-NN6-61 (GGCPHPMLPIFSVHFCPY; C4m#19-5th4w-NN6-61) | 5.9 |  |
| C4m#19-5th2w-NNS6-21 (GGCWHPFLPIRSSHFCPS; C4m#19-5th2w-NNS6-21) | 31.1 |  |
| C4m#19-5th4w-NN6-81 (GGCFHPYLPIRSWHFCSR; C4m#19-5th4w-NN6-81) | 32.3 |  |
| C4m#19-5th4w-NN6-30 (GGCWHPFLPIMSFHFCPY; C4m#19-5th4w-NN6-30) | 16.7 |  |
| C4m#19-5th4w-NN6-37 (GGCLHPFLPISSWHFCGR; C4m#19-5th4w-NN6-37) | 22.7 |  |
| C4m#19-5th4w-NN6-68 (GGCLHPWLPIRSRHFCSR; C4m#19-5th4w-NN6-68) | 24.7 |  |
| C4m#19-5th2w-NNS6-4 (GGCFHPWLPISSLHFCPF; C4m#19-5th2w-NNS6-4) | 6.3 |  |
| C4m#19-5th4w-NN6-56 (GGCWHPFLPIQSLHFCGV; C4m#19-5th4w-NN6-56) | 27.1 |  |
| C4m#19-5th4w-NN6-70 (GGCMHPFLPIRSMHFCPL; C4m#19-5th4w-NN6-70) | 35.5 |  |
| C4m3127-4th-NNS6-26 (GGCAHPALPIWSCHFCPF; C4m3127-4th-NNS6-26) [Clone C4m3127-4th-NNS6-26] | 7.1 |  |
| C4m#19-5th4w-NN6-14 (GGCWHPFLPIRSVHFCCR; C4m#19-5th4w-NN6-14) | 16.1 |  |
| C4m#19-5th4w-NN6-91 (GGCMHPYLRIISPHFCRG; C4m#19-5th4w-NN6-91) | 30.0 |  |
| C4m#19-5th2w-NNS6-30 (GGCWHPFLPILSWHFCGR; C4m#19-5th2w-NNS6-30) | 9.0 |  |
| C4m3127-4th-NNS6-90 (GGCKHPVLPIVSLHFCPW; C4m3127-4th-NNS6-90) [Clone C4m3127-4th-NNS6-90] | 22.9 |  |
| C4m3127-4th-NNS6-16 (GGCWHPYLPIFSVHFCPR; C4m3127-4th-NNS6-16) [Clone C4m3127-4th-NNS6-16] | 16.5 |  |
| C4m#19-5th2w-NNS6-43 (GGCRHPFLPIWSSHFCAA; C4m#19-5th2w-NNS6-43) | 4.8 |  |
| C4m#19-5th2w-NNS6-25 (GGCKHPFLPISSHHFCPY; C4m#19-5th2w-NNS6-25) | 21.1 |  |
